Source: publication PMC3623789

Test: confocal imaging, co-localisation with Na+/K+-ATPase, HEK293
Settings: glycan lost; control: wild-type 3xFLAG-rPRG3

B1: rPRG3 (plasticity-related gene 3, LPR1): N163Q (protein)
parent chain: MAVENNTQRSYSIIPCFIFVELVIMAGTVLLAYYFECTDTFQVHIQGFFCQDGDLMKPYPGTEEESFISPLVLYCVLAATPTAIIFIGEISMYFIKSTRESLIAEEKMILTGDCCYLSPLLRRIVRFIGVFAFGLFATDIFVNAGQVVTGHLTPYFLTVCQPNYTSTDCRAHHQFINNGNICTGDLEVIEKARRSFPSKHAALSIYSALYATMYITSTIKTKSSRLAKPVLCLGDLCTAFLTGLNRVSEYRNHCSDVIAGFILGTAVALFLGMCVVHNFKGTQGSASKPKPEDPRGVPLMAFPRIESPLETLSAQNHSASMTEVT
localisation_or_trafficking: abolishes
